Key:
rabbit erythrocytes = assay: hemagglutinating activity test, rabbit erythrocytes; type: cell-based; conditions: for hemagglutinating activity, titer (1.0 mg/ml): lectin 1.0 mg/ml
Description: (§1) The sugar binding specificity of lectin also can be confirmed by using erythrocytes that can be specifically agglutinated by the lectin to investigate the sugar type that may inhibit the agglutination of the erythrocytes and the concentration thereof.
(§2) PTL and SRL were subjected to hagglutinating activity test for rabbit, equine, pig, sheep, human (A, B, O), and actinase E-treated rabbit erythrocytes.

pig erythrocytes = assay: hemagglutinating activity test, pig erythrocytes; type: cell-based; conditions: for hemagglutinating activity, titer (1.0 mg/ml): lectin 1.0 mg/ml
Description: as §1, §2

sheep erythrocytes = assay: hemagglutinating activity test, sheep erythrocytes; type: cell-based; conditions: for hemagglutinating activity, titer (1.0 mg/ml): lectin 1.0 mg/ml
Description: as §1, §2

[1] = test system: human (A, B, O) erythrocytes; assay: hemagglutinating activity test, human (A, B, O) erythrocytes; type: cell-based; conditions: for hemagglutinating activity, titer (1.0 mg/ml): lectin 1.0 mg/ml
Description: as §2

[2] = test system: actinase E-treated rabbit erythrocytes; assay: hemagglutinating activity test, actinase E-treated rabbit erythrocytes; type: cell-based; conditions: for hemagglutinating activity, titer (1.0 mg/ml): lectin 1.0 mg/ml
Description: as §1, §2

[3] = target: Blood serum albumin (bovine) (Bos taurus, UniProt P02769); assay: detection of glycoprotein by Western blotting with biotin-labeled lectin; type: binding; design: key: ◯: Detected; X: Not detected; conditions: (O) Blood serum albumin (bovine), No sugar chain; biotin-labeled lectin 2 μg/ml
Sequence of Blood serum albumin (bovine) (P02769 25-607): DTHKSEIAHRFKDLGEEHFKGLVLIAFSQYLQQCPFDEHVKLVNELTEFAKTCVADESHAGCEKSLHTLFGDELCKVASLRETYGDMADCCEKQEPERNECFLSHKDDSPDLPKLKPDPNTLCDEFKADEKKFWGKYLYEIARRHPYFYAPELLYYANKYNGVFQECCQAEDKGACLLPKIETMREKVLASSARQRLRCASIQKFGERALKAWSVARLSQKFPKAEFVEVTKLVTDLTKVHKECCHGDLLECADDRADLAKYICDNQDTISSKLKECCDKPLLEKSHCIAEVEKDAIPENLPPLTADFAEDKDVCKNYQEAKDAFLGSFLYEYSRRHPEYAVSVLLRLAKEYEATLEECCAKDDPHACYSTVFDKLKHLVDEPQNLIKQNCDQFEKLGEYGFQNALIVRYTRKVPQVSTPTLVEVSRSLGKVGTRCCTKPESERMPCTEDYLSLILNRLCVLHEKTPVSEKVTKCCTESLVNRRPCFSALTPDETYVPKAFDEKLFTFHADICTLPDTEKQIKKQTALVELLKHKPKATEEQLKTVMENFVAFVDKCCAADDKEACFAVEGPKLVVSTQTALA
Description: (§3) PTL of Example 1, SRL of Example 2, AAL of Comparison Example 1, AOL of Comparison Example 2, and LCA of Comparison Example 3 all subjected to biotin-labeling.
(§4) Lectin was measured and was dissolved in 0.1 M sodium hydrogen carbonate solution (5 mg/ml). Then, a biotinylation reagent was dissolved in dimethyl sulfoxide and the resultant solution was added to lectin solution to cause reaction therebetween. Then, the reactant was […] and lyophilized, thereby obtain biotin-labeled lectin.
(§5) The solution obtained by dissolving the glycoprotein sample in 10 mM phosphate buffered saline (pH 7.4, PBS) at 2 mg/ml was dispensed to a microtube by a unit of 18 μl. 6 μl of SDS process liquid (Sample Buffer Solution (2ME−); Wako Pure Chemical Industries, Ltd.) and 1.25 μl of 2-mercaptoethanol (Bio-Rad Laboratories, Inc.) was added to each dispensed fluid and the resultant mixture was boiled for 5 minutes.
(§6) The film was immersed in 10 mM Tris buffer solution including 0.8% NaCl added with 1% BSA (pH 7.4, 1% BSA+TBS) and was shaken at a room temperature for one hour. Then, the film was cleaned three times by 10 mM Tris buffer solution (pH 7.4, TBS) including 0.8% NaCl. Then, the film was immersed in biotin-labeled lectin solution (2 μg/ml) and was shaken at a room temperature for one hour. Then, the film was cleaned three times by TBS. Then, the film was immersed in the HRP label streptavidin solution at 1 μg/ml (Vector Laboratories) and was shaken at a room temperature for 30 minutes. After the film was cleaned three times by TBS, a POD immunostain set (Wako Pure Chemical Industries, Ltd.) was used to perform a staining test. The staining test is to detect glycoprotein by the western blotting using biotin-labeled lectin. FIG. 13 to FIG. 17 are photographs showing the following glycoproteins stained by PTL (FIG. 13), SRL (FIG. 14), AAL (FIG. 15), AOL (FIG. 16), or LCA (FIG. 17).
(§7) In FIG. 13 to FIG. 17, the lanes 0 to 6 correspond to the followings. Lane 1: thyroglobulin, lane 2: lactoferrin, lane 3: immune immunoglobulin, lane 4: transferrin, lane 5: α1-acidic glycoprotein, lane 6: invertase, lane 0: bovine serum albumin (control)

[4] = test system: Immune-globulin G (human); assay: as above; type: binding; design: key: ◯: Detected; X: Not detected; conditions: (3) Immune-globulin G (human), N-linked glycan having α1→6 L-fucose; biotin-labeled lectin 2 μg/ml
Description: as §3, §4, §5, §6, §7

Invertase (yeast) = target: T1, Invertase (yeast) (Saccharomyces cerevisiae, UniProt P00724); assay: as above; type: binding; design: key: ◯: Detected; X: Not detected; conditions: (6) Invertase (yeast), High mannose-type sugar chain; biotin-labeled lectin 2 μg/ml
T1 sequence (P00724 20-532): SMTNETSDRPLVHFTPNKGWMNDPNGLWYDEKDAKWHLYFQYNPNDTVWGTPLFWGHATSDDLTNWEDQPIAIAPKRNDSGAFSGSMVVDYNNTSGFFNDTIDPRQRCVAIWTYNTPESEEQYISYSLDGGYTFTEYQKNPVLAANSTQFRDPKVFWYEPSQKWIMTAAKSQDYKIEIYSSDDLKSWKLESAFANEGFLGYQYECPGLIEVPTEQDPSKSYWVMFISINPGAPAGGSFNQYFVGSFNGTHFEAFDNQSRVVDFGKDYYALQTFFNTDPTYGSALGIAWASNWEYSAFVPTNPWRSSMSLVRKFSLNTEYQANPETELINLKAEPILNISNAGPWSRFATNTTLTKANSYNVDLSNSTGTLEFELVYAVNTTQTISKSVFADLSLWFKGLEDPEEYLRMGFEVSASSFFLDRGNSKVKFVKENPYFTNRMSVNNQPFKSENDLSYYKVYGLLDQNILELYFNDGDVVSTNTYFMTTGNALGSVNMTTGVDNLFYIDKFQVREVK
Description: as §3, §4, §5, §6, §7

Lactoferrin (bovine) = Lactoferrin (bovine) (Bos taurus, UniProt P24627); assay: as above; type: binding; design: key: ◯: Detected; X: Not detected; conditions: (2) Lactoferrin (bovine), N-linked glycan having α1→6 L-fucose; biotin-labeled lectin 2 μg/ml
Sequence of Lactoferrin (bovine) (P24627 20-708): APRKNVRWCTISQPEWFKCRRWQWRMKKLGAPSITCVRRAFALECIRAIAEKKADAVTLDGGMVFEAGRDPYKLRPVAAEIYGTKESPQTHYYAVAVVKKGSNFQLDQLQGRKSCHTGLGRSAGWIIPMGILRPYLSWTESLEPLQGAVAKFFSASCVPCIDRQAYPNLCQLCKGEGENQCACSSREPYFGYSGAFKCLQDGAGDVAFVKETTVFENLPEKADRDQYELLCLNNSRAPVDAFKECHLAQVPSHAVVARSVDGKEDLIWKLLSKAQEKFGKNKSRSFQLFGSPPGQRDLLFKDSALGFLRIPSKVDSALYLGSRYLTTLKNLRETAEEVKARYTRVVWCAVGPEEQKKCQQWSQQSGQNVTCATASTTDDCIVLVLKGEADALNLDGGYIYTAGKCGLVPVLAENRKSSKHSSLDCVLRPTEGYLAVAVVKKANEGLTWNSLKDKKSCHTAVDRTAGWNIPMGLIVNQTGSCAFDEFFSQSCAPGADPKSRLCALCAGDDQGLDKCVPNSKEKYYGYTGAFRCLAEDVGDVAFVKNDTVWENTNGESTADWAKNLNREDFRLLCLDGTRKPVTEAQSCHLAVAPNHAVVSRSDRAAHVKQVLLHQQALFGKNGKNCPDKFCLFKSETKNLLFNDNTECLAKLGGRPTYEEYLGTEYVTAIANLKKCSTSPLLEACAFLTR
Description: as §3, §4, §5, §6, §7

Thyroglobulin (pig) = Thyroglobulin (pig) (Sus scrofa, UniProt F1RRV3); assay: as above; type: binding; design: key: ◯: Detected; X: Not detected; conditions: (1) Thyroglobulin (pig), N-linked glycan having α1→6 L-fucose; biotin-labeled lectin 2 μg/ml
Sequence of Thyroglobulin (pig) (F1RRV3 20-2692): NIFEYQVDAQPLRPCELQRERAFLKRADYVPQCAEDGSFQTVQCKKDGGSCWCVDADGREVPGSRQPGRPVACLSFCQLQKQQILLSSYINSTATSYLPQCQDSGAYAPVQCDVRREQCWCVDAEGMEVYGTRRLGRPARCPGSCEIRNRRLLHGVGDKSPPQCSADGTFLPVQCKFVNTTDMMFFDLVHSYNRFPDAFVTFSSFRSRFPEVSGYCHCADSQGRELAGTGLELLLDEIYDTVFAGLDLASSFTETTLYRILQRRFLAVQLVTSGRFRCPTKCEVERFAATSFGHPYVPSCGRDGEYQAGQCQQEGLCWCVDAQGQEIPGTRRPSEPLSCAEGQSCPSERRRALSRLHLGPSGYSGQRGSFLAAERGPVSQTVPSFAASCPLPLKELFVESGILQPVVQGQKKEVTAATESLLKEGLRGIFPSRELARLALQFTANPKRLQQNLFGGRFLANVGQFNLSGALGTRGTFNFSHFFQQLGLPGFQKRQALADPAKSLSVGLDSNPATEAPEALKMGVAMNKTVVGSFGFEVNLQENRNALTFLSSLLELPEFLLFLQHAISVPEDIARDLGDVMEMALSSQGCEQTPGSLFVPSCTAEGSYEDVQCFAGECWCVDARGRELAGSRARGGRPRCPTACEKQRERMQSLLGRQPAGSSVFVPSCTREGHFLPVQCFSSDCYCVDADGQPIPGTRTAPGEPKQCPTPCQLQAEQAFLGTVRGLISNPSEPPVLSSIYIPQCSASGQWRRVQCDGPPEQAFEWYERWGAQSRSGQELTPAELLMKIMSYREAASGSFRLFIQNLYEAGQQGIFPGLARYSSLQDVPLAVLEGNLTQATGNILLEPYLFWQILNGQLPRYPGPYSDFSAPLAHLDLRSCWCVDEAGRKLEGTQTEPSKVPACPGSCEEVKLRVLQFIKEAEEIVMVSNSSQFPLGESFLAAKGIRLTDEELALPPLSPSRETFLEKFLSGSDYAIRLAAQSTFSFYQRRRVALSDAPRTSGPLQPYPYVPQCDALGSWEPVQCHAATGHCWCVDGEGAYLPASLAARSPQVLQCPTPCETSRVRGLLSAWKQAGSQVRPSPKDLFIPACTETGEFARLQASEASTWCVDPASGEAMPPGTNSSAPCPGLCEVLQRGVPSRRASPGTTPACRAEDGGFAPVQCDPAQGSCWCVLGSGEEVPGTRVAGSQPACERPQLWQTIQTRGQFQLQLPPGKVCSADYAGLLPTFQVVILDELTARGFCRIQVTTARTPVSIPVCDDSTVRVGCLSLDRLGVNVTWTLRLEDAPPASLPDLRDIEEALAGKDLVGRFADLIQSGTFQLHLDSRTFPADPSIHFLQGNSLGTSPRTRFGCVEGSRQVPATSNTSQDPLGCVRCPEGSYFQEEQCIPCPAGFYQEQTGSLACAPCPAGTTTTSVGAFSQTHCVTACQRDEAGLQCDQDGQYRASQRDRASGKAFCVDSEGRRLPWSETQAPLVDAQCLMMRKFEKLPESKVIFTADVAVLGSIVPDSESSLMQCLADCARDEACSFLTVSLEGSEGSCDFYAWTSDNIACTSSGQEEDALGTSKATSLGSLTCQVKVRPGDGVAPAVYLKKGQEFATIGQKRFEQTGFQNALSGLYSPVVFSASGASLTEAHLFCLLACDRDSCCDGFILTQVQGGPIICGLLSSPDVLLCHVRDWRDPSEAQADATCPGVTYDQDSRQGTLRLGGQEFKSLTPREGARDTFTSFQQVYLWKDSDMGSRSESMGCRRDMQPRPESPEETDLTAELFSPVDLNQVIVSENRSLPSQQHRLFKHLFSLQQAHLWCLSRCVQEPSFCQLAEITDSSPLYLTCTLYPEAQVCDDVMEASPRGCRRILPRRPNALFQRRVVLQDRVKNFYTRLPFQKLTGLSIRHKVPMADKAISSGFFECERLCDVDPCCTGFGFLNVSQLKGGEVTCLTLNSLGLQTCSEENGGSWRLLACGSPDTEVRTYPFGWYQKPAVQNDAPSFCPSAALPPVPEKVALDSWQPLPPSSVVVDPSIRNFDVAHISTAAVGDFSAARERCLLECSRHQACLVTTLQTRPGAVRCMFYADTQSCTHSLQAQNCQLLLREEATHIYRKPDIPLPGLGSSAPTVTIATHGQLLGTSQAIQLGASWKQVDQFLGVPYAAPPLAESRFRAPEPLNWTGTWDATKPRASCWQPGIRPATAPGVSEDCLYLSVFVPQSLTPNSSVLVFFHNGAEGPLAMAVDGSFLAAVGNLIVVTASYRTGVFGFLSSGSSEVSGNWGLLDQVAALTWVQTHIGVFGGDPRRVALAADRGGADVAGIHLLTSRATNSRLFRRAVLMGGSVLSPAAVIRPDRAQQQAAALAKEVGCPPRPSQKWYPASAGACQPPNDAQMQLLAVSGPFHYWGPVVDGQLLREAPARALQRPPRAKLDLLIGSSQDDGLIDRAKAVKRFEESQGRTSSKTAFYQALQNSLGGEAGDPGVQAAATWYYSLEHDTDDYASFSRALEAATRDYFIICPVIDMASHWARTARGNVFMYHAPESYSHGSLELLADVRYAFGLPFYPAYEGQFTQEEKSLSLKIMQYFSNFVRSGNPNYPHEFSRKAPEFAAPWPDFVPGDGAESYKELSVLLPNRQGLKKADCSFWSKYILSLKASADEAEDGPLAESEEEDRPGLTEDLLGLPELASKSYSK
Description: as §3, §4, §5, §6, §7

Transferrin (human) = Transferrin (human) (Homo sapiens, UniProt P02787); assay: as above; type: binding; design: key: ◯: Detected; X: Not detected; conditions: (4) Transferrin (human), N-linked glycan not including α1→6 L-fucose; biotin-labeled lectin 2 μg/ml
Sequence of Transferrin (human) (P02787 20-698): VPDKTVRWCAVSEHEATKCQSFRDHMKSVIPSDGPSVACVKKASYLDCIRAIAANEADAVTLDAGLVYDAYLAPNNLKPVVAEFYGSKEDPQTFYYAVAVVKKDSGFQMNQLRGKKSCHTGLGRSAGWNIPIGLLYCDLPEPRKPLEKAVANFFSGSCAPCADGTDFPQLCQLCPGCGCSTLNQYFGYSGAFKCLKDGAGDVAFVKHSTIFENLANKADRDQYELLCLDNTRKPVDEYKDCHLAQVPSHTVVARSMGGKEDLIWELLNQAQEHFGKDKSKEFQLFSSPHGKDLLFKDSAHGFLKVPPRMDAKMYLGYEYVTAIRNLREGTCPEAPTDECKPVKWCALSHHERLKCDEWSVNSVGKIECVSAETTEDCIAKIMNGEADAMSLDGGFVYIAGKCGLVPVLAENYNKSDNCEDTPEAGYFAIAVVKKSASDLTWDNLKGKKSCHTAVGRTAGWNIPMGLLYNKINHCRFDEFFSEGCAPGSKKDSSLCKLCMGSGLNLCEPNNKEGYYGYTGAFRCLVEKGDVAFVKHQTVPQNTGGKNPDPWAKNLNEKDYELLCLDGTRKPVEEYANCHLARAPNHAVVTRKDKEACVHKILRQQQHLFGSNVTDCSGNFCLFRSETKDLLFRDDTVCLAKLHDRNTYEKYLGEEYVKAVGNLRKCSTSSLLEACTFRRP
Description: as §3, §4, §5, §6, §7

[5] = test system: α1-acidic glycoprotein (human); assay: as above; type: binding; design: key: ◯: Detected; X: Not detected; conditions: (5) α1-acidic glycoprotein (human), N-linked glycan having α1→3 L-fucose; biotin-labeled lectin 2 μg/ml
Description: as §3, §4, §5, §6, §7

equine erythrocytes = assay: hemagglutinating activity test, equine erythrocytes; type: cell-based
Description: as §1, §2

Pholiota terrestris lectin [PTL, novel L-fucose α1→6 specific lectin purified from the mushroom Pholiota terrestris]
Minimum hemagglutinating concentration (rabbit erythrocytes): 5.21 µg/mL
hemagglutinating activity, titer (1.0 mg/ml) (rabbit erythrocytes): 64 titer
Minimum hemagglutinating concentration (pig erythrocytes): 20.8 µg/mL
hemagglutinating activity, titer (1.0 mg/ml) (pig erythrocytes): 16 titer
Minimum hemagglutinating concentration (sheep erythrocytes): >333 µg/mL
hemagglutinating activity, titer (1.0 mg/ml) (sheep erythrocytes): <1 titer
Minimum hemagglutinating concentration ([1]; Human A erythrocytes): >333 µg/mL
hemagglutinating activity, titer (1.0 mg/ml) ([1]; Human A erythrocytes): <1 titer
Minimum hemagglutinating concentration ([1]; Human B erythrocytes): >333 µg/mL
hemagglutinating activity, titer (1.0 mg/ml) ([1]; Human B erythrocytes): <1 titer
Minimum hemagglutinating concentration ([1]; Human O erythrocytes): >333 µg/mL
hemagglutinating activity, titer (1.0 mg/ml) ([1]; Human O erythrocytes): <1 titer
Minimum hemagglutinating concentration [2]: 0.13 µg/mL
hemagglutinating activity, titer (1.0 mg/ml) [2]: 2560 titer
detection of glycoprotein by Western blotting [3]: X
detection of glycoprotein by Western blotting [4]: ◯
detection of glycoprotein by Western blotting (Invertase (yeast)): X
detection of glycoprotein by Western blotting (Lactoferrin (bovine)): ◯
detection of glycoprotein by Western blotting (Thyroglobulin (pig)): ◯
detection of glycoprotein by Western blotting (Transferrin (human)): X
detection of glycoprotein by Western blotting [5]: X

Stropharia rugosoannulata lectin [SRL, novel L-fucose α1→6 specific lectin purified from the mushroom Stropharia rugosoannulata]
Minimum hemagglutinating concentration (rabbit erythrocytes): 5.21 µg/mL
hemagglutinating activity, titer (1.0 mg/ml) (rabbit erythrocytes): 64 titer
Minimum hemagglutinating concentration (equine erythrocytes): 2.61 µg/mL
hemagglutinating activity, titer (1.0 mg/ml) (equine erythrocytes; lectin 1.0 mg/ml): 128 titer
Minimum hemagglutinating concentration (pig erythrocytes): 10.4 µg/mL
hemagglutinating activity, titer (1.0 mg/ml) (pig erythrocytes): 32 titer
Minimum hemagglutinating concentration (sheep erythrocytes): >333 µg/mL
hemagglutinating activity, titer (1.0 mg/ml) (sheep erythrocytes): <1 titer
Minimum hemagglutinating concentration ([1]; Human A erythrocytes): >333 µg/mL
hemagglutinating activity, titer (1.0 mg/ml) ([1]; Human A erythrocytes): <1 titer
Minimum hemagglutinating concentration ([1]; Human B erythrocytes): >333 µg/mL
hemagglutinating activity, titer (1.0 mg/ml) ([1]; Human B erythrocytes): <1 titer
Minimum hemagglutinating concentration ([1]; Human O erythrocytes): >333 µg/mL
hemagglutinating activity, titer (1.0 mg/ml) ([1]; Human O erythrocytes): <1 titer
Minimum hemagglutinating concentration [2]: 0.651 µg/mL
hemagglutinating activity, titer (1.0 mg/ml) [2]: 512 titer
detection of glycoprotein by Western blotting [3]: X
detection of glycoprotein by Western blotting [4]: ◯
detection of glycoprotein by Western blotting (Invertase (yeast)): X
detection of glycoprotein by Western blotting (Lactoferrin (bovine)): ◯
detection of glycoprotein by Western blotting (Thyroglobulin (pig)): ◯
detection of glycoprotein by Western blotting (Transferrin (human)): X
detection of glycoprotein by Western blotting [5]: X

Aspergillus oryzae lectin [AOL, reference compound]
detection of glycoprotein by Western blotting [3]: X
detection of glycoprotein by Western blotting [4]: ◯
detection of glycoprotein by Western blotting (Invertase (yeast)): X
detection of glycoprotein by Western blotting (Lactoferrin (bovine)): ◯
detection of glycoprotein by Western blotting (Thyroglobulin (pig)): ◯
detection of glycoprotein by Western blotting (Transferrin (human)): X
detection of glycoprotein by Western blotting [5]: X

B1: Lens culinaris agglutinin (protein)
chain 1: TETTSFSITKFSPDQKNLIFQGDGYTTKGKLTLTKAVKSTVGRALYSTPIHIWDRDTGNVANFVTSFTFVIDAPSSYNVADEFTFFIAPVDTKPQTGGGYLGVFNSKEYDKTSQTVAVEFDTFYNAAWDPSNKERHIGIDVNSIKSVNTKSWNLQNGERANVVIAFNAATNVLTVTLTYP
chain 2: VTSYTLNEVVPLKDVVPEWVRIGFSATTGAEFAAHEVHSWSFHSELGGTSSS
detection of glycoprotein by Western blotting [3]: X
detection of glycoprotein by Western blotting [4]: ◯
detection of glycoprotein by Western blotting (Invertase (yeast)): ◯
detection of glycoprotein by Western blotting (Lactoferrin (bovine)): ◯
detection of glycoprotein by Western blotting (Thyroglobulin (pig)): ◯
detection of glycoprotein by Western blotting (Transferrin (human)): X
detection of glycoprotein by Western blotting [5]: X

B2: Aleuria aurantia lectin (protein)
chain: PTEFLYTSKIAAISWAATGGRQQRVYFQDLNGKIREAQRGGDNPWTGGSSQNVIGEAKLFSPLAAVTWKSAQGIQIRVYCVNKDNILSEFVYDGSKWITGQLGSVGVKVGSNSKLAALQWGGSESAPPNIRVYYQKSNGSGSSIHEYVWSGKWTAGASFGSTVPGTGIGATAIGPGRLRIYYQATDNKIREHCWDSNSWYVGGFSASASAGVSIAAISWGSTPNIRVYWQKGREELYEAAYGGSWNTPGQIKDASRPTPSLPDTFIAANSSGNIDISVFFQASGVSLQQWQWISGKGWSIGAVVPTGTPAGW
detection of glycoprotein by Western blotting [3]: X
detection of glycoprotein by Western blotting [4]: ◯
detection of glycoprotein by Western blotting (Invertase (yeast)): X
detection of glycoprotein by Western blotting (Lactoferrin (bovine)): ◯
detection of glycoprotein by Western blotting (Thyroglobulin (pig)): ◯
detection of glycoprotein by Western blotting (Transferrin (human)): X
detection of glycoprotein by Western blotting [5]: X
